Experimental data published in PMC8951179.

Tests used:
[1] = target: GST-Ku70_1–250_S69A (human) (UniProt P12956); test: pull-down; GST pull-down: 100 nM GST-Ku70 variant as bait on glutathione-agarose, 100 or 200 nM His6-IN; buffer A (20 mM Hepes pH 7.5, 100 mM NaCl, 7.5 mM MgCl2, 2 mM 2-mercaptoethanol, 50 µg/mL BSA, 0.1% NP40), room temperature; Western blot
[2] = target: GST-Ku70_1–250_Q65A/Q68A (human) (UniProt P12956); test: as above

“HIV-1 integrase carrying N-terminal His6-tag (natural protein)” showed an IN binding activity, % of the wild-type protein [1] of 55 to 73% and a reduction in the protein binding efficiency (control Ku70 1–250) [2] of 10 to 15%.
